# Experimental data taken from article PMC10562560, “Molecular basis for cellular retinoic acid-binding protein 1 in modulating CaMKII activation” (Frontiers in Molecular Biosciences, 2023).
# B1: CaMK-R peptide (29-residue peptide, residues 281–309 of the regulatory segment of CaMKII alpha) (peptide, UniProt P11798 281-309, looked up)
# peptide: MHRQETVDCLKKFNARRKLKGAILTTMLA
# notes: also called CAMKII-R; CaMKII peptide; source: synthetic peptide (University of Minnesota Peptide Synthesis Services)
# Key:
# [1] = target: His-tagged CRABP1 R29A (Mus musculus); assay: pull-down; purified His-CRABP1 (WT or mutant, 5 uM) held on Ni-NTA resin as bait; 250 ug pre-cleared lysate of HEK293T cells expressing GFP-CaMKII (DMSO or ionomycin 10 uM, 10 min) as prey; 50 mM Tris pH 8.0, 150 mM NaCl, 0.2% NP-40, 20% glycerol, 200 mM imidazole, overnight at 4°C; Western blot with anti-GFP and anti-His; densitometry gives the CCI (n = 5)
# [2] = target: His-tagged CRABP1 H94A (Mus musculus); assay: as above
# [3] = target: His-tagged CRABP1 T96A (Mus musculus); assay: as above
# [4] = target: T1, 15N-labeled wild-type cellular retinoic acid-binding protein 1 (CRABP1) (Mus musculus, UniProt P62965 2-137, 15N-labeled); assay: NMR titration; 15N-1H HSQC of 15N-labeled CRABP1 (19 uM) without and with CaMK-R peptide (200 uM); 30 mM d11-Tris-d3-acetate pH 6.2, 75 mM Na2SO4, 10 uM ZnCl2, 1 mM TCEP, 30°C; details: both partners purified
# T1 construct: also called 15N-labeled CRABP1; 15N WT CRABP1; source: expressed and purified as described in Park et al. (2019); SEC
# T1 sequence (P62965 2-137): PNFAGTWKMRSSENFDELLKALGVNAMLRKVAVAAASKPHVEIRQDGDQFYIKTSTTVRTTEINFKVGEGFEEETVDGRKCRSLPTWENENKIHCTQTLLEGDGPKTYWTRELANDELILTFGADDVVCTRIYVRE
molecule,measurement,setting,value
"GFP-CaMKII beta, inactive (from vehicle-treated HEK293T cells) (from UniProt P08413 1-542) (cell lysate)",CRABP1–CaMKII Complex Index (CCI; ratio of inactive to active CaMKII pulled down),[1],1
"GFP-CaMKII beta, inactive (from vehicle-treated HEK293T cells) (from UniProt P08413 1-542) (enzyme)",CRABP1–CaMKII Complex Index (CCI; ratio of inactive to active CaMKII pulled down),[2],1
same,CRABP1–CaMKII Complex Index (CCI; ratio of inactive to active CaMKII pulled down),[3],1
B1,binding result,[4],binds
